From paper PMC3791466, “Structure of a helicase–helicase loader complex reveals insights into the mechanism of bacterial primosome assembly” (Nature Communications, 2013)

T1: Bacillus stearothermophilus helicase DnaB (B. stearothermophilus, UniProt Q9X4C9 1-454)
T1 construct: replicative DNA helicase DnaB of Bacillus stearothermophilus; N-terminal domain, linker and C-terminal RecA-fold domain; both the NTD and the CTD are in the structure; also called BstDnaB; hexameric helicase ring
T1 sequence: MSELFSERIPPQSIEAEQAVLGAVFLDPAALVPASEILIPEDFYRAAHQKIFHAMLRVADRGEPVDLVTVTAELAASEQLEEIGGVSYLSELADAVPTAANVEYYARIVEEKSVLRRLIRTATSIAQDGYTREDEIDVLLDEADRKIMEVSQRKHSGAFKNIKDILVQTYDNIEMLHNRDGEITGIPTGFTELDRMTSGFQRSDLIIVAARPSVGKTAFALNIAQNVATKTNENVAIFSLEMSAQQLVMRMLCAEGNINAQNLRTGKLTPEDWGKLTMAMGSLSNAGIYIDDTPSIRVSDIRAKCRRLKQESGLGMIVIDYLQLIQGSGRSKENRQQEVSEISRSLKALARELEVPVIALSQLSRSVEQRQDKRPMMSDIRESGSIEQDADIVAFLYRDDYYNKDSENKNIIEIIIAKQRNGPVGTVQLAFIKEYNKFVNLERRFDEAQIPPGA

T2: Bacillus subtilis helicase loader protein DnaI (B. subtilis), P06567
T2 chain: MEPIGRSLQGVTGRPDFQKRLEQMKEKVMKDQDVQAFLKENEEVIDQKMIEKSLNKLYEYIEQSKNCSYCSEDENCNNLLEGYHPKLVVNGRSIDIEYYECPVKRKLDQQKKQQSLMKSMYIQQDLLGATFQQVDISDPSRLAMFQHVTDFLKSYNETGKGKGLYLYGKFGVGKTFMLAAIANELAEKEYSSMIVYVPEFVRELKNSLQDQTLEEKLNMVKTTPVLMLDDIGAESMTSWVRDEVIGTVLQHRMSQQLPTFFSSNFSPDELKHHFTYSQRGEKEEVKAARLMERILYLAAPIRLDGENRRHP

B1: Bacillus subtilis helicase loader protein DnaI (natural protein, B. subtilis)
chain: T2 chain
notes: primosomal helicase loader DnaI of Bacillus subtilis 168, cloned by PCR from genomic DNA into NcoI-XhoI of pET21d(+); the reverse primer has no stop codon before XhoI, so a C-terminal His tag of the vector is surmised; No cleavage of the tag is described; also called BsuDnaI
B2: helicase-binding domain (HBD) of Bacillus stearothermophilus primase DnaG (domain or fragment, B. stearothermophilus)
chain: KLLPAFQNAERLLLAHMMRSRDVALVVQERIGGRFNIEEHRALAAYIYAFYEEGHEADPGALISRIPGELQPLASDVSLLLIADDVSEQELEDYIRHVLNRPKWLMLKVKEQEKTEAERRKDFLTAARIAKEMIEMKKMLSSS
notes: also called HBD of BstDnaG; HBD of primase DnaG

Columns and labels:
[1] = biological target: T1, Bacillus stearothermophilus helicase …; assay: crystal structure; 570-kDa complex of BstDnaB, BsuDnaI and HBD of BstDnaG, molecular replacement, 7.5 Å; proteins in the crystals confirmed by tryptic digestion and mass spectrometry; details: both partners purified
[2] = biological target: T2, Bacillus subtilis helicase loader …; assay: as above; details: remark: other sources report otherwise
[3] = biological target: T2, Bacillus subtilis helicase loader …; assay: SEC-MALS; gel filtration and multiple-angle light scattering of BsuDnaI alone at 10 mg/ml; details: remark: other sources report otherwise
[4] = biological target: T1, Bacillus stearothermophilus helicase …; assay: crystal structure; another crystal form obtained under different conditions, content shown by molecular replacement; details: both partners purified

| Binder | stoichiometry N [1] | stoichiometry N [2] | percent monomer at 10 mg/ml [3] | stoichiometry N [3] | stoichiometry N [4] |
| --- | --- | --- | --- | --- | --- |
| B1 | 3 loader dimers per helicase hexamer | 6 | 93% | 2 | – |
| B2 | 3 HBDs per helicase hexamer | – | – | – | 3 HBDs per DnaB hexamer |
